Values quoted from earlier work, collected in patent US8618048B2, “Insulin analogues of prolonged activity” (Instytut Biotechnologii I Antybiotyków, priority 2008, dated 2013).

Details: background statement

Q: With “unmodified natural insulin: unmodified natural insulin” as the substance, how does the isoelectric point read?
A: 5.4
